Data: the DeepSol protein solubility set

Assay: soluble on expression in E. coli; label from the status in PepcDB or PDB records
For “MLMTIDISEESLAKESADLLKILLKDRTTKKSIVWATHSYELLGKGFAPSDRINPSKVTGNFANLIQPRSEKSKYEQKDRTKIRAEVFTPTWLVAKQNGYVESKLGSLSLEEYVDLRWLEVTCGEAPYMVTRYDTVTGEEIPLSERVGFVDRKLQRISREVSDEVTFYKLVKDAYHASYGYEYQGDSLLLARENLLATFEDYYLAKTGNQPTLEQKKEIATIISYNVFQMDGLKKSSPYSAKQKQSQQLSLFADELEVQEVEESKTHIKDWKKNRMIGFERLSSEESEMKFDVVIGNPPYQETGEARDEPIYHYFIDEAYKIADKSILITPARFLFKAGQTPKNWMEKMLEDKHLKVQFYELKSGKVFTGTDIKGGVAITYRDVDKDLGPIGVFTIFETLNGIVKKIEKHPEFETFSDLVYPQGIYRFSNKLFSDYPNAEKLQGKGTKNKIVSKSLTQLDFVFKNNEEKDHVALLGRIGSERVYRYINKKYLDLPETFENYNVFVPEANGSGALGEVLSTPLIGEPLIGHTDTFLSIGNFKTKFEADACIKFIKTKFARVLLGVLKVTQHNSRKTWYYVPLQDFTVNSDIDWTQSVTDIDRQLDQKYDLSPEEIAFIENHVREMD”, the “soluble on expression in E. coli” value was “not soluble”. In the case of “MLMVVPLSEMGPGDKGIVVNILGGHNARQKLVSMGLTPGATIQVLESHPMGPIIISVGGVRFAIGKGLAGRVMVRKL”, the “soluble on expression in E. coli” value is reported as “soluble”. For “MLNNLLQQATSPNGRARQYAIEHTVELTNLIPPTVSYESGGHTLIIGPTMLIERITEPLSSMASITLLSVDGEPGTQSNLYYADTVEISGFLGAFSVNVENHGKRVNLAQAAIGGNSFDIVLDMSLNGLMSEEVPVPGYFPVGRGYPKLADALEEIPTLMGTFDKPKYFRLDPDLCAHSSRGVKGCERCVDACPAGALSSEGSEQTGHRIQINPYLCQGVGTCATACPTEAIHYALPNPTDTQKFIERLLANYHQAGGEKPIVLICSSRHESYNVMALKVLPDNVIPVVVEELPSVGIDSWFAALVNGATQVLFAASRHMPPTIQRILNQEMSMAQSLLTHLGLPKETIDILYLESLREGMPVLCEQPLGLKLGDLIGNKRERLFTALDALAETLNAQPSVQPLSISAPYGTIECQTSDCTLCMSCVAVCPTRALHLAGDSPALRFIEQDCVQCGLCVKACPEQVLSATPQLNWNKAARQGVVTLHQEEPAKCLRCHKPFAPQSMITMLQTKLRGHSHFATPEALNRIAMCEDCRVVDMFEAMAHDPEQQLKY”, the “soluble on expression in E. coli” value was “not soluble”. For “MLNPDELVAIDIHTHAEEPCGCHADDGYDDFQARMAEYFGSPNKHPPTVPETAAYYRAKKIAAVIFPVDAERETGFRRYNNDEMIEITRQNSDVLIPFASIDPHKGKIGVREARRLIADYGIKGFKFHPTMQGFYANDRLAYPLYEAIQEGGAIALFHTGQTGVGSGMPGGMGMRLKYSNPMYMDDVAADFPDMKIVLAHPSFPWQEEALSVATHKPNVYIDLSGWSPKYFPPILVRYINSILQDKMLFGSDWPVITPDRWLSDFAKLEIREEVRAKVLKQNARKLLGIAAALEHHHHHH”, the “soluble on expression in E. coli” value was “not soluble”. In the case of “MLNRIIEHMNAHHVEDMKGLLKKFGQVHHAENVAFKSVDPQGIVIGYNHNQTLRIEFNHEVKDPKDYKNAIIELCQSVEKTHDLKGVEEEVKAFKESFDSVCLATLHPNGHVVCSYAPLMSDGKQYYIYVSEVAEHFAGLKNNPHNVEVMFLEDESKAKSAILRKRLRYKTNARFIERGAEFDKAFDSFIEKTGGAGGIKTIRAMQDFHLIALDFKEGRFVKGFGQAYDILGDKIAYVGDKGNPHNFAHKK”, the “soluble on expression in E. coli” value is reported as “not soluble”. In the case of “MLNSRRIVVVLPAYNAEKTLEMTYAEIPFEHVDHVLLVDDASRDRTAQVAERLGIKTIVHDRNKGYGANQKTCYRAALDLGADIVIMVHPDYQYTPKLITAMAAMIAYGEFDAVLGSRILGIGALKGGMPLYKYVANRVLTLVENLLLSHKLSEYHTGYRAFSRQVLEQLPLDANGDDFVFDNQMLAQIIWHGYRIGELSCPTKYFEDASSINFRRSVIYGLGVLGTALEFRLARMGLIRSGRFTPRNDQAAAQLEHHHHHH”, the “soluble on expression in E. coli” value is reported as “soluble”. With “MLNYLFENNCLLCGKEVSPLRSLCENCEEKVLKNGPSFYREVHRKYELFVYSDYTDEIERIIRLYKYHGEVSLSGTLVKLFLKLYSYFPREANLITWVPSSLDSLEDRGFDHMRLLAKRISKELGIPFDAVLENVSEGRQVEKSKEERKRTGRFICKKDPPQNVILIDDVLTTGTSVRDCVETLFRNGVSKVFVYVLAKTRR” the “soluble on expression in E. coli” value was “not soluble”. In the case of “MLPAEREQFIITFLKTNKKATIHDLALEFNVHEATIRRDLNKLEQYNQIKRTHGGVVLNDSEVWDELNFDDRETSYYDEKVAIGLKAAEFVENGDTLFIDSGSTTIHFARALTQKSNLTIITNDIHIASILKSTANQIIVTGGILYQDNYLLNGMITNETLKLFNPSKLFLATPAIDLEKGITHFNDTLASTKIQMVKQAKAVYVLTDSSKFDKVALYNVCSSDTIDVLITDQTNKNIDWQAYDNHFKHLITVHAEAHPELEHHHHHH”, the “soluble on expression in E. coli” value is reported as “soluble”. For “MLPCRANCFTLEISLMHINIAWQDVDTVLLDMDGTLLDLAFDNYFWQKLVPETWGAKNGVTPQEAMEYMRQQYHDVQHTLNWYCLDYWSEQLGLDICAMTTEMGPRAVLREDTIPFLEALKASGKQRILLTNAHPHNLAVKLEHTGLDAHLDLLLSTHTFGYPKEDQRLWHAVAEATGLKAERTLFIDDSEAILDAAAQFGIRYCLGVTNPDSGIAEKQYQRHPSLNDYRRLIPSLM”, the “soluble on expression in E. coli” value was “not soluble”. In the case of “MLPFANYYISSPSVSEKNAINNNVNKRRKKKRAMMVYGGGGGGDDLAVVKAAAWAWYLRKEGKPIMREFDVTRAQRIPRPSRYKIEATKNMILSENRVLAENRVSSTKSPLWYTNYQFRGDQETYYSRLLDTYETKNISKRLNIDDSSFSTSLSSVLKHNGDDHHNHNRNDDYGFDDHGLLKKRNGSDSNTTTRSKTNNDKSYNGGFMKKVSKRSLWKGMIVMGPGSTVCGRSDDVASQAGRRTVKVAVAAEALVRSAASGSGKTQSGHC”, the “soluble on expression in E. coli” value is reported as “not soluble”. In the case of “MLPNGRKWLDLWRKNVTVTAGGFLAISATTGVAGYEMAKDDVTLIKNGNKQEIRTHAKTVKELLAEQNIQPRKEDYVYPSLHSPITDDLHIVWEASKEVTLTVNGKKKKIWTTADTVAELLRSQHVAVGAYDKVAPALSAKIQKGMDIGVEKAFPVHVNVGGKQQQVWTTSTTVADFLKQQGIQLGQFDRIEPSLHETVKEQMTIRVIRVKKVTDVVEEPVDFAVVTKRDDSLPKGERRVIQPGEKGMVQKTYEVTLENGKETARKLIAAKTLKESKARIVAIGTKTVRSAAAPDRPSSRGSDHAAKEFYVTATAYTAYCAGCSGITSTGINLRKNPSAKVIAVDPSIIPLGSKVYVEGYGYAIAADTGSGIRGYKIDVFFPERSDAFRWGRKRVKIRVLP”, the “soluble on expression in E. coli” value is reported as “not soluble”. For “MLPRAEQKQQTRRALLDAAHQLMESGRGFGSLSLREVARTAGIVPTGFYRHFEDMDQLGLALVIEVGQTFRETIRLVRHNEFAMGGLIRASVKIFLERVAANRSQFLFLAREQYGGSLKVRQALGALREGISADLTADLAKMPKWQHLNADALSIIADLVVKSVFAMLPELIDPPPASLAPHLTPQAKITQQLRFIFIGARHWRGLGTHD”, the “soluble on expression in E. coli” value was “not soluble”. With “MLPVSCKLPNMGTYQSYLSSSMPAGCVLPVGGNFEILLHYYLLNYAKKCHQSEETMVSMIIANALLGIPKVLYKSKTGKYSFPHTYIRAVHALQTNQPLVSSQTGLESVMGKYQLLTSVLQCLTKILTIDMVITVKRHPQKVHNQDSEDELLEHHHHHH” the “soluble on expression in E. coli” value was “not soluble”. In the case of “MLQCIFLISDSGEVMLEKQLTGHRVDRSICAWFWDQYISQGDSFKALPVIASPTHYLFQIVRDGITFLACSQVEMPPLMAIEFLCRVADVLSEYLGGLNEDLIKDNFIIVYELLDEMIDNGFPLTTEPSILKEMIAPPNLVSKMLSVVTGNASNVSDTLPSGAGSCVPWRPTDPKYSSNEVYVDLVEEMDAIVNRDGELVKCEIYGEVQMNSQLTGFPDLTLSFANPSILEDMRFHPCVRYRPWESHQVLSFVPPDGEFKLMSYRVKKLKNTPVYVKPQITSDSGTCRISVLVGIRSDPGKTIESITLSFQLPHCVSSADLSSNHGTVTILSNKTCTWTIGRIPKDKTPCLSGTLALEPGLERLHVFPTFKLGFKIMGIALSGLRIEKLDLQTIPPRLYKGFRAQTRAGEFDVRL”, the “soluble on expression in E. coli” value is reported as “soluble”. In the case of “MLQLKNIGILSTYNSKTDSFDYLKNCNIDIENGIIIGLGDSNHNGDQVIDCNHKLVTPGFVDAHTHPVFVNGREKEFIERISGKSYQEISNKGGGINSSIIRVREIDEIDLLDLVIKRMDDFIYMGTTTIEAKTGYGLNTDSELKSLRVLENAHNKHKIDIFPTFLGAHSVPNEYNGDSNAYTDLLCNEMIPAVAKQGIAKFCDVFCEEEYFDCNQSRKILEKAVEYGLIPRMHTDEFSSIGGVKIASKINAISADHLMEISDEDIELLANSNTIAILLPGTTFFLGKTTYAPARKLIDKGVHVSIATDFNPGSCHIKSMPFIIGLSCIYLGLSIEEALKAATWSGACAINEQERIGSIEVGKKADLIIWDLDTIDQIPYNIINAPIVNVIKDGVPLITLD”, the “soluble on expression in E. coli” value is reported as “soluble”. For “MLQNSRIKMNPKKLYQADGHAVQELLPAMKILYQAKAEDPNTDNSPKWTQVKNKLSSKMQEVRITRQLSSQLPETGALLSELLSRQEFISQQHERAASRAVPLAEAEKVLQATVQNIAQETEQLSNKLNNVASDEAELDEKIERKKREYEQLQKRFAKLQSFRPQYMDEYERFEERLKKLYEVYVLNFRNLSYLRKVHDDLARSERQRQEELEKAMRMAVEKMRLEQEKKDAIGLHDDDGSDAPLVDRRQSVRKVYGNMMGGDASDDDEDDEDDEDDEIIRMDDNVAQHHKRELHRQEEDEERSEADYMVGITTAHVADDAKSDLSSGDDF”, the “soluble on expression in E. coli” value was “not soluble”. With “MLQPPTLTPNANGEEFRGSVSTDRSSASPSNIDEIMEDDVNQKDEDEDLNLVDRVSKLETNFVFIQHQLSSIMNHLHAPQCKCTTCSKVNQPGAEEQKNDTSVLSQLFPNASDQQLKTLLDLSKMNKLPSQVVHKDQQNGSSFLPSANKTSENPKPIELKPLKLGQGYQMANGGGGGKIHTERLSEPARKQSRKVGFPPPVASYYQRKESSNPLVPPTPLSSIPNLITNSNAVSANTSTASPGPSSEGSGDDHLEAPNEVAHMHSSTVPATPTTPGANLFTQSMVDMLKLNAQNAAHSTGSPGFLRGRGRGRPKLIGDELDADLVDYMVSLKNSDPHGGHFTASQALHMARQYILERAPGLLEEHGGHVKLKLTWAMKLVSRIGERQREIELGLPAGTLSNMGRNLTNIPAGGNFMADMMAQNIFSQHMMMVNQQLEGGSPPASSSSTATTSTATKTVKQESKNGHQNEENLNVKQEASTMPEIINIKELNLPFLNNFLAELNDNNSGLIDGEIGAAGPSMAALFAPNA” the “soluble on expression in E. coli” value was “not soluble”. With “MLQPTPTLTDQVAGQLARAIADGAYAVGAKLPTGRALAQQYGVSAAVIREATERLRAQGLVQSRQGSGCTVVARMPAGGFQVPAGGLDRAHLARVYELRMELEGGAAALAARRRGAADLDRMRQALQALQREPIEPEQGVVHDVGFHVAIATATANPYYLQLLQYLNLQLRQAVETARANTRRQGDPVHAVHEEHLAIYRAIERGEPEAARAAAQHHLLGAAARLQLDMNL” the “soluble on expression in E. coli” value was “not soluble”. With “MLQSLKDVAKQAPVHRKLDIQEWKTAEGAKVLFVEAHELPMFDLRLTFAAGSSQDAGTPGLSMLTNAMLNEGVPGKDTTAIAAGFEDLGASFSNGSYRDMAVAGLRSLSEADKRTQALKLFEQVIGQPTFPEDALARIKNQVLAGFEYQKQNPGKLAGLELFKRLYGEHPYAHSSDGDEKSVPTISREQLQAFHKKAYAAGNVVIALVGDLSRQEAEAIAAEVSKALPQGPALAKTLEHHHHHH” the “soluble on expression in E. coli” value was “soluble”. In the case of “MLQYPELPLESPLIDAELPDPRGGRYRLSQFHEPLLAVVFMCNHCPYVKGSIGELVALAERYRGKVAFVGINANDYEKYPEDAPEKMAAFAEEHGIFFPYLLDETQEVAKAYRALRTPEVFLFDERRLLRYHGRVNDNPKDPSKVQSHDLEAAIEALLRGEEPPLKEAPAIGCTIKWRPGNEPEVRIG”, the “soluble on expression in E. coli” value is reported as “soluble”.
